Measurements: patent publication US20150148405A1, “Expression Construct for a Lin28-Resistant Let-7 Precursor MicroRNA” (THE JOHNS HOPKINS UNIVERSITY, priority 2012, published 2015)

Legend:
[1] = system: Let-7a; assay: Northern blot of pre- and mature Let-7a; assay type: cell-based, mouse; conditions: BDNF-treated (30 min) neurons
Experimental: Northern blots were carried out as described (Hwang et al., 2007), using the following LNA probes from Exiqon: Let-7a (5′ […] 3′; SEQ ID NO: 1), pre-Let-7a (5′ GTGGGTGTGACCCTA 3′; SEQ ID NO: 2), miR-17 (5′ […] 3′; SEQ ID NO: 3) and quantified by phosphoimaging.

[2] = system: hippocampal pyramidal neurons; assay: Live cell imaging of P-body numbers (GFP-Dcp1a); assay type: cell-based, mouse; conditions: BDNF-stimulated vs mock, GFP-Dcp1a live imaging, in presence of Actinomycin-D
Experimental: Dissociated hippocampal cultures were prepared from postnatal day 0 (P0) mice as previously described (Meffert et al., 2003). Knockdown was by lentiviral-mediated delivery of shRNA to cultures at multiplicity of infection of 5-10, 48 hr before imaging or 4-5 days for GW182. Cultures were preincubated 10-20 min and mock- or BDNF-stimulated (100 ng/mL BDNF) in the presence of Actinomycin-D (0.5 μg/mL), unless indicated otherwise.
Confocal images of hippocampal pyramidal neurons were acquired on either a Yokogawa spinning disk (Zeiss) at 37° C. (live cells), or a LSM5 Pascal system (fixed cells). Laser power and exposure time were adjusted to minimize photobleaching and avoid saturation. […]
Dissociated hippocampal cultures were prepared from postnatal day 0 (P0) mice as previously described (Meffert et al., 2003) and were maintained in Neurobasal A medium (Gibco, 10888) with B27 Supplement (Gibco 17504-44). […] For live cell imaging, confocal images of hippocampal pyramidal neurons (excitatory, determined by morphology) in 0.24-0.3 μm Z sections were acquired using a 40×, 1.3 NA, EC Plan Neofluoar (whole cells) or a 100×, 1.4 NA Plan Apochromat oil immersion objective (dendrites) on a Yokogawa spinning disk system (Cell Observer, Carl Zeiss) at 37° C. in Tyrodes buffer (in mM: 119 NaCl, 5 KCl, 2 CaCl2, 0.2 MgCl2, Glucose, 25 Hepes, 0.01 Glycine, pH 7.4). […]

B1: BDNF: brain-derived neurotrophic factor, a neurotrophin used to stimulate hippocampal neurons (protein, UniProt P23560 19-247, looked up)
Neurotrophic factor BDNF …: APMKEANIRGQGGLAYPGVRTHGTLESVNGPKAGSRGLTSLADTFEHVIEELLDEDQKVRPNEENNKDADLYTSRVMLSSQVPLEPPLLFLLEEYKNYLDAANMSMRVRRHSDPARRGELSVCDSISEWVTAADKKTAVDMSGGTVTVLEKVPVSKGQLKQYFYETKCNPMGYTKEGCRGIDKRHWNSQCRTTQSYVRALTMDSKKRIGWRFIRIDTSCVCTLTIKRGR
In the case of B1, the “pre-Let7 and mature Let-7 miRNA levels” value [1] is reported as “significant decreases” and the “number of dendritic and somatic P-bodies” value [2] is reported as “rapid and robust increase in the number of both dendritic and somatic P-bodies”.
